{
  "source": "patent US20030003451A1",
  "about": "“Novel G protein-coupled receptors” (priority 2000, published 2003)",
  "key": {"[1]": {"system": "CHO cells stably transfected with a nGPCR-x expression vector", "test": "Intracellular calcium measurement using FLIPR, positive controls", "assay_type": "cell-based, Chinese Hamster", "details": "A23187 10 μM, ATP 4 μM", "protocol": "Changes in intracellular calcium levels are another recognized indicator of G protein-coupled receptor activity, and such assays can be employed to screen for modulators of nGPCR-x activity. For example, CHO cells stably transfected with a nGPCR-x expression vector are plated at a density of 4×10^4 cells/well in Packard black-walled, 96-well plates specially designed to discriminate fluorescence signals emanating from the various wells on the plate. The cells are incubated for 60 minutes at 37 C. in modified Dulbecco's PBS (D-PBS) containing 36 mg/L pyruvate and 1 g/L glucose with the addition of 1% fetal bovine serum and one of four calcium indicator dyes (Fluo-3™ AM, Fluo-4™ AM, Calcium Green™-1 AM, or Oregon Green™ 488 BAPTA-1 AM), each at a concentration of 4 μM. […]\nA calcium response is initiated by the addition of one or more candidate receptor agonist compounds, calcium ionophore A23187 (10 μM; positive control), or ATP (4 μM; positive control). Fluorescence is measured by Molecular Device's FLIPR with an argon laser (excitation at 488 nm). […] Basal fluorescence of cells was measured for 20 seconds prior to addition of candidate agonist, ATP, or A23187, and the basal fluorescence level was subtracted from the response signal. The calcium signal is measured for approximately 200 seconds, taking readings every two seconds. […]"}, "nGPCR-51 [2]": {"target": "T1, nGPCR-51 (Homo sapiens, UniProt Q969V1)", "T1 construct": "expressed in transfected cells", "T1 sequence (Q969V1 whole entry)": "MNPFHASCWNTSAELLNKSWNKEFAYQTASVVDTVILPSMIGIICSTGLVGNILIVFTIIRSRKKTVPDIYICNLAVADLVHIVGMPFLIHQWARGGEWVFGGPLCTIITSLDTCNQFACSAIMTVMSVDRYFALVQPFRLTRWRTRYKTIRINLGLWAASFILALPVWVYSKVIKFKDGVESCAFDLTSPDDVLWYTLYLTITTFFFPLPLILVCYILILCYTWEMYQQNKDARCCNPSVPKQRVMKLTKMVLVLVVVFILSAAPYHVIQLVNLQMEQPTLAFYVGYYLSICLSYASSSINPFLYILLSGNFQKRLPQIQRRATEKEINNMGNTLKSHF", "test": "NFkB-Luciferase reporter gene assay, nGPCR-51 (Seq51)-transfected N7 (HOS) cells", "assay_type": "cell-based", "details": "5-hr incubation, 2 separate experiments, read-out: EC50, luciferase expression", "protocol": "nGPCR-51 was transfected in N7 cells, stable HOS (human osteosarcoma) cells expressing NFkB-Luciferase reporter gene Briefly, LipofectAMINE, PLUS reagent, and 4 μg DNA were added to cells in Opti-MEM. After 4 hours, serum-containing medium was added to each plate. Twenty-four hour after transfection the cells were trypsinized and seeded in COSTAR white 96-well plate at a cell density of about 20,000 cells per well. Another 24 hours later the culture medium was replaced with fresh growth medium and Peptide A was added. After 5-hr incubation with Peptide A, the medium was aspirated and 100 μL diluted Steady Glo was added. The plates were gently shake at room temperature for 30 minutes and luminescence determined by TopCount at the SPC mode."}, "vector-transfected cells": {"system": "vector-transfected cells", "test": "Intracellular calcium measurement using FLIPR, empty vector control HEK293 cells", "assay_type": "cell-based, human", "details": "0.03 pM-10 nM", "protocol": "(§1) HEK293 cells were transiently transfected with an expression vector for nGPCR-51 and empty vector using Lipofectamine plus (Gibco) according to the manufacturer's instructions. The next day, the cells were seeded into 96-well plates at 25,000 cells per well. The following day, cells were loaded with 1 uM Fluo-4-acetoxymethyl fluorescent indicator dye (Molecular Probes) in MEM (minimal essential media) containing 0.1% bovine serum albumin, 0.04% pluronic acid and 2.5 mM probenecid for 30 minutes at 37 C. The cells were washed with pre-warmed (37 C.) assay buffer (Hanks buffer containing 15 mM HEPES, 2.5 mM probenecid and 0.1% bovine serum albumin). Assay buffer (100 ul) was added to each well and plates were incubated at 37 C. for 15 minutes. Various concentrations (0.03 pM-10 nM) of human Peptide A or salmon Peptide B were added and fluorescence produced by fluo-4 (a calcium sensitive dye) was measured every second for 150 seconds on a fluorometric imaging plate reader (FLIPR1; Molecular Devices). Human Peptide A and salmon Peptide B-induced calcium mobilization in nGPCR-51-transfected cells with EC50 values of 3 nM and 6 nM, respectively. Human Peptide A and salmon Peptide B had no effect on vector-transfected cells."}, "nGPCR-51 [3]": {"target": "T1, nGPCR-51", "test": "Intracellular calcium measurement using FLIPR, nGPCR-51-transfected HEK293 cells", "assay_type": "cell-based", "details": "fluo-4, FLIPR, read-out: EC50, calcium mobilization", "protocol": "as §1"}, "nGPCR-51 [4]": {"target": "T2, nGPCR-51 (human (H. sapiens), UniProt Q969V1 1-340)", "T2 sequence (Q969V1 whole entry)": "as above", "test": "cell-based or functional assay"}, "nGPCR-51 [5]": {"target": "T2, nGPCR-51", "test": "saturation radioligand binding, membranes of COS 7 cells transiently expressing nGPCR-51, filtration", "protocol": "HEK 293 or COS 7 cells transiently expressing nGPCR-51, or CHO K-I cells stable expressing nGPCR-51, were grown to sub-confluence (2 days post-transfection for transients), harvested from flasks in Dulbecco's PBS and pelleted by low speed centrifugation (2500 rpm) for 10 minutes. Cell pellets were homogenized in 10 ml tissue buffer (50 mM Hepes, 10 mM MgCl₂, 2 mM EGTA, 1 μg/ml aprotinin, 1 μg/ml leupeptin hemisulfate, 1 μg/ml pepstatin A, pH 7.0) using a dounce, 10 strokes. Homogenate was centrifuged at 47,000× g for 15 minutes. Membrane pellet was resuspended in 1 ml tissue buffer using the dounce, 10 strokes. An aliquot of the membrane preparation was used to determine protein concentration. For measurement of saturation binding, 10 μg of cell membranes were incubated with various concentrations of [¹²⁵I] Peptide A (iodinated by routine procedures via the Tyr residue) in 300 μl binding assay buffer (tissue buffer plus 0.15 mM Bacitracin and 0.1% ovalbumin) for 90 minutes at room temperature in 96-well plates. Non-specific binding was defined by the inclusion of 1 μM Peptide A. After the binding incubation, plates were harvested onto GF/C filters presoaked in 0.3% non-fat dry milk. […] Filter plates were then counted in a Packard Topcount™ 96-well microplate scintillation counter. Data were analyzed using GraphPad Prism (San Diego, Calif.) and Kd and Bmax values were calculated. […]"}},
  "note": "Bridge positions count the residues as written; N and C are the ends. Ends that are not written are not given here. Peptide text beside a SMILES is read from it. * marks the point of attachment. 125I = [125I]*",
  "data": [
    {"molecule": "Nc1ncnc2c1ncn2[C@@H]1O[C@H](COP(=O)(O)OP(=O)(O)OP(=O)(O)O)[C@@H](O)[C@H]1O", "note": "[ATP]", "values": [
      {"measurement": "increase of calcium signal above baseline levels", "setting": "[1]", "value": 200, "unit": "%"}
    ]},
    {"molecule": "CNc1ccc2oc(C[C@H]3O[C@@]4(CC[C@H]3C)O[C@H]([C@H](C)C(=O)c3ccc[nH]3)[C@H](C)C[C@H]4C)nc2c1C(=O)O", "note": "[Peptide A23187]", "values": [
      {"measurement": "increase of calcium signal above baseline levels", "setting": "[1]", "value": 200, "unit": "%"}
    ]},
    {"molecule": "CSCC[C@@H]1NC(=O)[C@@H](NC(=O)[C@H](CCCNC(=N)N)NC(=O)[C@H](CCSC)NC(=O)[C@@H](NC(=O)[C@@H](N)CC(=O)O)[C@@H](C)O)CSSC[C@@H](C(=O)N[C@@H](Cc2c[nH]c3ccccc23)C(=O)N[C@@H](CCC(=O)O)C(=O)N[C@H](C(=O)O)C(C)C)NC(=O)[C@@H]2CCCN2C(=O)[C@H](CCCNC(=N)N)NC(=O)[C@H](Cc2ccc(O)cc2)NC(=O)[C@H](C(C)C)NC(=O)[C@H](CCCNC(=N)N)NC(=O)CNC(=O)[C@H](C(C)C)NC1=O", "note": "[salmon Peptide B, Asp Thr Met Arg Cys Met Val Gly Arg Val Tyr Arg Pro Cys Trp Glu Val] (HELM PEPTIDE1{D.T.M.R.C.M.V.G.R.V.Y.R.P.C.W.E.V}$PEPTIDE1,PEPTIDE1,5:R3-14:R3$$$V2.0; N-terminus and C-terminus assumed)", "values": [
      {"measurement": "EC50", "setting": "nGPCR-51 [2]", "value": "~25", "unit": "nM"},
      {"measurement": "effect on calcium mobilization in vector-transfected cells", "setting": "vector-transfected cells", "value": "no effect"},
      {"measurement": "EC50", "setting": "nGPCR-51 [3]", "value": 6, "unit": "nM"}
    ]},
    {"molecule": "DTMRCMVGRVYRPCWEV", "note": "[Salmon Peptide B]", "values": [
      {"measurement": "calcium mobilization (FLIPR, fluo-4, HEK293 cells), EC50", "setting": "nGPCR-51 [4]", "value": 6, "unit": "nM"},
      {"measurement": "luciferase expression (NFkB-Luciferase reporter, N7 cells), EC50", "setting": "nGPCR-51 [4]", "value": "~25", "unit": "nM"}
    ]},
    {"molecule": "DFDMLRCMLGRVY(125I)RPCWQV (disulfide 7-16 (inferred))", "note": "[[^125I] Peptide A]", "values": [
      {"measurement": "Kd", "setting": "nGPCR-51 [5]", "value": 0.254, "unit": "nM"}
    ]},
    {"molecule": "DFDMLRCMLGRVYRPCWQV (disulfide 7-16 (inferred))", "note": "[Peptide A]", "values": [
      {"measurement": "aequorin luminescence, EC50", "setting": "nGPCR-51 [4]", "value": "~40", "unit": "nM"},
      {"measurement": "aequorin luminescence, maximum response", "setting": "nGPCR-51 [4]", "value": 52, "unit": "fold over baseline"},
      {"measurement": "calcium mobilization (FLIPR, fluo-4, HEK293 cells), EC50", "setting": "nGPCR-51 [4]", "value": 3, "unit": "nM"}
    ]}
  ]
}
